This note sets out measurements from publication PMC6628914 (Frontiers in Immunology, 2019).

For the experiment, the target named is T1, HIV-1 JRFL envelope (Env, gp120-gp41) on HIV-1 JRFL pseudovirions (HIV-1 JR-FL, UniProt Q75760, strain).
T1 construct: also called HIV-1 JRFL virions; tier-2 JRFL pseudovirus; copies: 3 + 3
Nature of the experiment: FRET or BRET + other: fluorescence correlation spectroscopy (FRET-FCS); all reactants in solution; donor (Alexa 488) and acceptor (Alexa 568) labelled Fabs with virions at 10 μg/ml (about 1.5 virions in the 1 fL focal volume); FRET bursts and diffusion coefficient of the acceptor channel (6 μm^2/s for virion-bound Fab). The note with it: one partner purified. On the technique in general: BRET reads energy transfer from a luciferase to a nearby fluorophore.

B1: 2G12 Fab, Alexa 488- or Alexa 568-labelled (Fab, V domains shown)
VH: EVQLVESGGGLVKAGGSLILSCGVSNFRISAHTMNWVRRVPGGGLEWVASISTSSTYRDYADAVKGRFTVSRDDLEDFVYLQMHKMRVEDTAIYYCARKGSDRLSDNDPFDAWGPGTVVTVSP
VL: DVVMTQSPSTLSASVGDTITITCRASQSIETWLAWYQQKPGKAPKLLIYKASTLKTGVPSRFSGSGSGTEFTLTISGLQFDDFATYHCQHYAGYSATFGQGTRVEIK
B1: the binding result is listed as “binds”.
